Test results: patent US20090055975A1

Target: receptor on the pea aphid (Acyrthosiphon pisum) gut epithelium
Assay: cell-based or functional assay

| Molecule | Detection of PEMV RNA in the aphid hemocoel, 1-10 min (No. of positive/No. of tested) (positive samples of 4 tested) | Detection of PEMV RNA in the aphid hemocoel, 11-20 min (No. of positive/No. of tested) (positive samples of 4 tested) | Detection of PEMV RNA in the aphid hemocoel, 21-30 min (No. of positive/No. of tested) (positive samples of 4 tested) | time of feeding on virus-infected plants until viral RNA is detected in hemolymph [min] | Detection of PEMV RNA in the aphid hemocoel, 1-10 min (No. of positive/No. of tested) (positive samples of 6 tested) | Detection of PEMV RNA in the aphid hemocoel, 11-20 min (No. of positive/No. of tested) (positive samples of 6 tested) | Detection of PEMV RNA in the aphid hemocoel, 21-30 min (No. of positive/No. of tested) (positive samples of 6 tested) | Detection of PEMV RNA in the aphid hemocoel, 31-40 min (No. of positive/No. of tested) (positive samples of 6 tested) | Detection of PEMV RNA in the aphid hemocoel, 41-50 min (No. of positive/No. of tested) (positive samples of 6 tested) | Detection of PEMV RNA in the aphid hemocoel, 51-60 min (No. of positive/No. of tested) (positive samples of 6 tested) | Detection of PEMV RNA in the aphid hemocoel, 61-75 min (No. of positive/No. of tested) (positive samples of 2 tested) | Detection of PEMV RNA in the aphid hemocoel, 76-90 min (No. of positive/No. of tested) (positive samples of 2 tested) |
| --- | --- | --- | --- | --- | --- | --- | --- | --- | --- | --- | --- | --- |
| control phage PhDC6 displaying control peptide C6 | 0 | 0 | 2 | 30 | – | – | – | – | – | – | – | – |
| ATCSKKYPRSPCMA (peptide, not shown: large carriers) [phage PhD3.1 displaying peptide GBP3.1] | – | – | – | 60 | 0 | 0 | 0 | 0 | 0 | 1 | 0 | 0 |
